Experiment [1] addresses recombinant human DLL4 extracellular domain, C-terminally His-tagged (R&D Systems) (human, UniProt Q9NR61 25-522, biotinylated in the competition assays (sites not given)). Put plainly: cell-based or functional assay.
The target of experiment [2] is human DLL4, full length, overexpressed on CHO or HEK293 cells (human, UniProt Q9NR61 27-685). In words: cell-based or functional assay.
Experiment [3] addresses T1, recombinant human Jagged-1 (Alexis) (human, UniProt P78504 34-1067, limits assumed).
T1 construct: also called hJagged-1; hJAG1
Put plainly: binding ELISA on coated rhJagged-1. As to the method:
Absence of binding to homologous ligands human DLL1 and human Jagged-1 is assessed via solid phase binding assay (ELISA). In brief, human DLL1 (Alexis, San Diego, Calif., USA) and human Jagged-1 (Alexis, San Diego, Calif., USA) are coated overnight at 4° C. at 1 μg/mL in a 96-well MaxiSorp plate (Nunc, Wiesbaden, Germany). Wells are blocked with a casein solution (1% in PBS). VHHs are applied as dilution series and binding is detected using a mouse anti-myc (Roche) and an anti-mouse-AP conjugate (Sigma, St. Louis, Mo., USA).

Experiment [4] addresses T2, recombinant human DLL4 (human, UniProt Q9NR61 25-522). Put plainly: cell-based or functional assay.
The target in experiment [5] is T2, recombinant human DLL4. Put plainly: SPR Biacore T100; rhDLL4 on chip; heterogeneous binding curve, no 1:1 fit.
Experiment [6] concerns the target T3, human Ang2 (human, UniProt O15123 19-496, limits assumed).
T3 construct: also called hAng2; human Angiopoietin2
T3 sequence (looked up): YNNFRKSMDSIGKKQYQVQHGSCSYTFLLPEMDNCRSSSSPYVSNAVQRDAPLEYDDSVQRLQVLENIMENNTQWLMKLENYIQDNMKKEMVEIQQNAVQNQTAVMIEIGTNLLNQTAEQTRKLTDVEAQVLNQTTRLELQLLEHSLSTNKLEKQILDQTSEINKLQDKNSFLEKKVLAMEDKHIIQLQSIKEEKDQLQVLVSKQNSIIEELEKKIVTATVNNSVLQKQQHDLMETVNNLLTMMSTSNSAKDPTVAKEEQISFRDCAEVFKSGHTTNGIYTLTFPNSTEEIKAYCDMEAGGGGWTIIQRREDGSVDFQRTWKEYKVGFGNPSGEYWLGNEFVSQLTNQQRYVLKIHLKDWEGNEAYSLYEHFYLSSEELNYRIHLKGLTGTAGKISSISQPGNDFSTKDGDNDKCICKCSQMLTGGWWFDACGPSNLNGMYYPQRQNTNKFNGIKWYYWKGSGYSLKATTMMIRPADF
In words: competition ELISA: hAng2 binding to hTie2.

Experiment [7] addresses T4, mouse Ang2 (mouse, UniProt O35608 19-496, limits assumed).
T4 construct: also called mAng2
T4 sequence (looked up): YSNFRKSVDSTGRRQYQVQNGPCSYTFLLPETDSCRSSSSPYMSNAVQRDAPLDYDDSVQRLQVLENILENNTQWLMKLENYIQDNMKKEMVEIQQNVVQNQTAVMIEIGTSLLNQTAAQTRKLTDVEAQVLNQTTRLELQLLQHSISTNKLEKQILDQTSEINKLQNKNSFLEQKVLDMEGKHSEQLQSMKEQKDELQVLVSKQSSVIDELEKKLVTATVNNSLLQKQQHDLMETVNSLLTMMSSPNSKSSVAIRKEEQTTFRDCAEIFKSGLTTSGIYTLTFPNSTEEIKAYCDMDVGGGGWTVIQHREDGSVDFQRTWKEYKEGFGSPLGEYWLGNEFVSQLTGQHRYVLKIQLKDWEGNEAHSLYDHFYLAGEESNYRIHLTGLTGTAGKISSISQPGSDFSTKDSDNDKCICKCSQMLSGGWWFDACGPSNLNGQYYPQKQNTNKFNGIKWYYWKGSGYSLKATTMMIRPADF
In words: competition ELISA: mAng2 binding to mTie2. A general note: An ELISA detects its analyte on a solid surface through an enzyme-linked reagent.

Experiment [8] addresses T5, cynomolgus Ang2 (cynomolgus).
T5 construct: also called cAng2; cyno Ang2
Put plainly: competition ELISA: cAng2 binding to cTie2.

Experiment [9] concerns the target T6, cynomolgus DLL4 overexpressed on CHO cells (cynomolgus, UniProt Q9NR61 27-685 (human entry)).
T6 construct: also called CHO-cDLL4; cDLL4
T6 chain: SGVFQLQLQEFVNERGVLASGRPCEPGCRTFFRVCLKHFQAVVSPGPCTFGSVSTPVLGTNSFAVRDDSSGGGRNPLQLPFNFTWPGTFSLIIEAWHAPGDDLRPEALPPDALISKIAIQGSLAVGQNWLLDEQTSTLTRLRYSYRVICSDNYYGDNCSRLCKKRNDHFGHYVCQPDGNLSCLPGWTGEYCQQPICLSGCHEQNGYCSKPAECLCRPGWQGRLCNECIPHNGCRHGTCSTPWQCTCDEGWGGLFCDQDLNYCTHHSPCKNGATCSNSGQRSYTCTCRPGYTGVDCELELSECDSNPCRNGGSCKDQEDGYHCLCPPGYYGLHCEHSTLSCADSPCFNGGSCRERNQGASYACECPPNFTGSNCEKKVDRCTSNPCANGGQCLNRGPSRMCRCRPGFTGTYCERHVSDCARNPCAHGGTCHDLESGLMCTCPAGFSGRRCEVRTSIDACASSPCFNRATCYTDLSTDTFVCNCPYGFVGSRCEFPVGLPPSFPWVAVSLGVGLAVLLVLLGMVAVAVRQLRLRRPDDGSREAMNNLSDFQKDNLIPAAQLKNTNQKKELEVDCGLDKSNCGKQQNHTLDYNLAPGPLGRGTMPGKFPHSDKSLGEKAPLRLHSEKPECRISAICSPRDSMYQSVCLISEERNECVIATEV
In words: FACS, CHO-cDLL4 cells. The procedure:
Additionally, in order to determine cross-reactivity of the bispecific VHHs to murine and cynomolgus DLL4, a FACS binding experiment is performed. Briefly, CHO cells overexpressing mouse and cynomolgus DLL4 are used for a titration binding experiment of the VHHs. After a 30 min incubation on ice, all samples are washed and a 2-step detection using anti-c-myc followed by goat-anti mouse IgG-PE labeled is performed. CHO cells overexpressing human DLL4 are taken as reference. The mean MCF value is determined using a FACS Array and used for calculation of the EC₅₀ value (Table 24; FIG. 19).
(In general: A flow cytometer gives signals particle by particle.)

Another experiment concerns the target T7, recombinant mouse DLL4 (mouse, UniProt Q9JI71 27-532).
T7 construct: extracellular domain; also called rmDLL4; mDLL4; not shown: C-terminal His tag
In words: binding ELISA, coated mDLL4. As to the method: (§1) In order to determine cross-reactivity to mouse DLL4 and rat DLL4, a binding ELISA is performed. […] Wells are blocked with a 1% casein solution. VHHs are applied as dilution series and binding is detected biotinylated anti-VHH 1A4 followed by extravidin-HRP. 1A4 is an anti-VHH VHH (generated in-house by Ablynx NV). As reference binding to human DLL4 is measured.

A further experiment addresses T8, rat DLL4 (rat, UniProt D3ZHH1 28-530, limits assumed).
T8 construct: also called rDLLA; rDLL4
In words: binding ELISA, coated rat DLL4. The procedure: as §1

Experiment [10] deals with T3, human Ang2. Put plainly: competition ELISA: hAng2 binding to hTie2. The source holds these as a separate data set.
The target of experiment [11] is T4, mouse Ang2. In words: competition ELISA: mAng2 binding to mTie2. This is another data set of the same source.
Experiment [12] concerns the target T5, cynomolgus Ang2. Put plainly: competition ELISA: cAng2 binding to cTie2. This is another data set of the same source.
Experiment [13] addresses T3, human Ang2. Put plainly: competition ELISA: hAng2 binding to hTie2. This is another data set of the same source.
Experiment [14] concerns the target T4, mouse Ang2. Put plainly: competition ELISA: mAng2 binding to mTie2. The source holds these as a separate data set.
Experiment [15] deals with T5, cynomolgus Ang2. Put plainly: competition ELISA: cAng2 binding to cTie2. This is another data set of the same source.

Values joined by “and” are separate entries in the source; they are usually repeats but may differ in a detail not shown here. Equal values may be shown once. Read-outs that look alike come from different tables or passages of the source.

The kon is the rate constant with which the complex forms. As a reminder, the EC50 is the concentration that produces a half-maximal response.

T7 sequence (Q9JI71 27-532): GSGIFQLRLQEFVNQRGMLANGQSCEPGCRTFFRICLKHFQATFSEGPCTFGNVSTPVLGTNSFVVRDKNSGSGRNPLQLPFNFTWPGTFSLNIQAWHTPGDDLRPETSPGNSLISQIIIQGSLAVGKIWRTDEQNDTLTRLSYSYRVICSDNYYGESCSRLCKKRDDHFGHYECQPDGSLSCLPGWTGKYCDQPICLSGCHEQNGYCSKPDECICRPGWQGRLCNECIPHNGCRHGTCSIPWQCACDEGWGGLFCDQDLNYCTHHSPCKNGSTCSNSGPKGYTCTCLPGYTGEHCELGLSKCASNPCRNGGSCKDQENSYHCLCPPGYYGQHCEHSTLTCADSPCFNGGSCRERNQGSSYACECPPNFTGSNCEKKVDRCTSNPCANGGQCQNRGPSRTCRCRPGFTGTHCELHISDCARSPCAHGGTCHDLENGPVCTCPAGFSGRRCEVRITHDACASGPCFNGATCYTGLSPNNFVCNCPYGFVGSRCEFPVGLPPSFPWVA
T8 sequence (D3ZHH1 28-530 limits assumed): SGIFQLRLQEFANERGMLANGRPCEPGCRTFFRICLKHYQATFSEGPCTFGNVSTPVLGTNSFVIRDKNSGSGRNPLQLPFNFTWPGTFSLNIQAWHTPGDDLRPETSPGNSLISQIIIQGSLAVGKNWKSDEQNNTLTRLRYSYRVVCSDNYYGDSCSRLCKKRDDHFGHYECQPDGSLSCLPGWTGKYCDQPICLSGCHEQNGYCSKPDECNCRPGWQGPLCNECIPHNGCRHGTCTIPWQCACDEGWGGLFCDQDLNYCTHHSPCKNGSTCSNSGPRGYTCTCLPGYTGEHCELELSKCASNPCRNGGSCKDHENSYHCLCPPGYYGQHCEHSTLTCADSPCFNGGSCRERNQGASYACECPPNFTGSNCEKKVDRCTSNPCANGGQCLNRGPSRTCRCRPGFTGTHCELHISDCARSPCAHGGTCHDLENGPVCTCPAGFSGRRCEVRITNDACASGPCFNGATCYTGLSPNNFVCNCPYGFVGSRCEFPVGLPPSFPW

B1: DLLBII56A09 (VHH)
VHH: EVQLVESGGGLVQPGGSLRLSCAASGFTFDDYAIGWFRQAPGKEPEGISCISSSGGITYYADSVKGRFTTSRDNAKNTVYLQMNSLKPEDTAVYYCATPGIAACRGIHYTGQGTQVTVSS
notes: also called 56A9; DLLBII56A9; not shown: C-terminal c-myc and His6 tags
Take B1: in experiment [1], the “concentration giving complete inhibition, HUVEC proliferation assay” value worked out at 10 µM. The “IC50, DLL4/Notch1 reporter assay (luciferase; co-culture with HEK293-hDII4)” value in experiment [2] was 540 nM. Moreover, in experiment [3], the binding result is “no binding (tested: 2.5e-7 M)”.

B2: DLLBII104G01 (VHH)
VHH: EVQLVESGGGLVQAGGSLRLSCAASGFTFDDYAIGWFRQAPGKEREGVSCISSSDGSTYYADSVKGRFTISSDNAKNTVYLQMNSLKPEDTAVYYCATAWCDSSWYRSFVGYWGQGTQVTVSS
notes: also called 104G1; not shown: C-terminal c-myc tag and His6 tag
Take B2: in the experiment with recombinant human DLL4 [4], the “IC50 (nM) in the DLL4 proliferation assay (HUVEC, experiment 1)” value is 103 nM and the “IC50 (nM) in the DLL4 proliferation assay (HUVEC, experiment 2)” value came out at 32 nM. Also, the on-rate constant (kon) with recombinant human DLL4 [5] is 120000 M⁻¹ s⁻¹ and 150000 M⁻¹ s⁻¹.

B3: 00921 (VHH)
VHH: EVQLVESGGGLVQPGGSLRLSCAASGFTFDDYALGWFRQAPGKEREGVSCIRCSGGSTYYADSVKGRFTISSDNSKNTVYLQMNSLRPEDTAVYYCAASIVPRSKLEPYEYDAWGQGTLVTVSS
On to B3, for which the entries for the “IC50 (read off the curve)” value in the experiment with human Ang2 [6], with mouse Ang2 [7] and in the experiment with cynomolgus Ang2 [8] were approximately 20 nM, approximately 30 nM and approximately 40 nM, respectively.

B4: DLLBII00018 (VHH)
VHH: DVQLVESGGGLVQPGGSLRLSCAASGRTFSSYAMAWYRQAPGKEREYVAAIRWSGGTAYYADSVKGRFTISRDNAKNTVYLQMNSLRPEDTAVYYCANRAPDTRLAPYEYDHWGQGTLVTVSS
B4: the 50% effective concentration (EC50) stood at 0.8 nM in experiment [9], 3.3 nM with recombinant mouse DLL4 and 2.6 nM in the experiment with rat DLL4.

B5: 00956 (VHH)
VHH: EVQLVESGGGLVQPGGSLRLSCAASGFTLDDYAIGWFRQAPGKEREGVSAIRSSGGSTYYADSVKGRFTISSDNSKNTVYLQMNSLRPEDTAVYYCAAVPAGRLRFGEQWYPLYEYDAWGQGTLVTVSS
Take B5: the entries for the “IC50 (read off the curve)” value with human Ang2 [10], with mouse Ang2 [11] and in the experiment with cynomolgus Ang2 [12] were approximately 1 nM, approximately 2 nM and approximately 2 nM, respectively.

B6: 00938 (VHH)
VHH: EVQLVESGGGLVQPGGSLRLSCAVSGITLDDYAIGWFRQAPGKEREGVSAIRSSGGSTYYADSVKGRFTISSDNSKNTVYLQMNSLRPEDTAVYYCAAVPAGRLRYGEQWYPIYEYDAWGQGTLVTVSS
Take B6: the “IC50 (read off the curve)” value was approximately 40 pM in the experiment with human Ang2 [13], approximately 60 pM with mouse Ang2 [14] and approximately 100 pM in the experiment with cynomolgus Ang2 [15].

The values above are taken from patent US20130078247A1 (Boehringer Ingelheim, published 2013).
